Assay results reported in US20220112308A1 (Genentech, published 2022).
Changes are numbered by the printed parent chain.

B1: anti-KRas antibody 2H11 (antibody, human IgG1, V domains shown)
VH: EVQLQESGPGLVKPPGTLSLTCAVSGGSISSSNWWSWVRQPPGKGLEWIGEIYHSGSTNYNPSLKSRVTISVDKSKNQFSLKLSSVTAADTAVYYCARGSSSWYDLGPFDYWGQGTLVTVSS
VL: not shown
notes: also called Class II anti-KRas antibody; CLAMP
B2: anti-KRas antibody 1A5 (antibody, human IgG1, V domains shown)
VH: EVQLVESGGGLVQPGGSLRLSCAASGFTFSSYSMNWVRQAPGKGLEWVSYISSSSSTIYYADSVKGRFTISRDNAKNSLYLQMNSLRAEDTAVYYCARGFYVRNWFDPWGQGTLVTVSS
VL: AIQMTQSPSSLSASVGDRVTITCRASQGIRNDLGWYQQKPGKAPKLLIYAASSLQSGVPSRFSGSGSGTDFTLTISSLQPEDFATYYCLQDHDYPLTFGQGTKVEIK
notes: also called Class I anti-KRas antibody; 1A5-488 (labelled form in FACS)
B3: anti-KRas antibody 1D6 (antibody, human IgG1, V domains shown)
VH: EVQLVESGGGLVQPGGSLRLSCAASGFTFSSYAMSWVRQAPGKGLEWVSAISSSGSSTYYADSVKGRFTISRDNSKNTLYLQMNSLRAEDTAVYYCARDQGGYGYPGESWFDYWGQGTLVTVSS
VL: B2 VL with A1D, R30S, N31S, D32Y, G34A, L89Q, D91Y, H92Y, D93S, L96F
notes: also called Class I anti-KRas antibody
B4: anti-KRas antibody 1E5 (antibody, V domains shown)
VH: EVQLVESGGGLVKPGGSLRLSCAASGFTFSSYSMNWVRQAPGKGLEWVSSISSSSSYIYYADSVKGRFTISRDNAKNSLYLQMNSLRAEDTAVYYCARTNNYGYRYFDYWGQGTLVTVSS
VL: LTQDPAVSVALGQTVRITCQGDSLRSYYASWYQQKPGQAPVLVIYGKNNRPSGIPDRFSGSSSGNTASLTITGAQAEDEADYYCNSRDSSGNHWVFGGGTKLTVL
notes: also called Class II anti-KRas antibody
B5: anti-KRas antibody 2A3 (antibody, human IgG1, V domains shown)
VH: B4 VH with T99A, N100T, N101S, Y102S, R105Y
VL: ELTQDPAVSVALGQTVRITCQGDSLRSYYASWYQQKPGQAPVLVIYGKNNRPSGIPDRFSGSSSGNTASLTITGAQAEDEADYYCNSRDSTDNHLWVFGGGTKLTVL
notes: as for B4
B6: anti-KRas antibody 3A12 (antibody, V domains shown)
VH: EVQLVESGGGLVQPGGSLRLSCAASGFTFSSYSMNWVRQAPGKGLEWVSYISSSSSTIYYADSVKGRFTISRDNAKNSLYLQMNSLRAEDTAVYYCARGKGIVGWGFFGMDVWGQGTLVTVSS
VL: SVLTQPPSVSAAPGQKVTISCSGSSSNIGNNYVSWYQQLPGTAPKLLIYDNNKRPSGIPDRFSGSKSGTSATLGITGLQTGDEADYYCGTWDNSLSVWVFGGGTKLTVL
notes: as for B4
B7: anti-KRas antibody 1B7 (antibody, human IgG1, V domains shown)
VH: EVQLVQSGAEVKKPGSSVKVSCKASGGTFSSYAISWVRQAPGQGLEWMGGIIPIFGTANYAQKFQGRVTITADESTSTAYMELSSLRSEDTAVYYCARYYDFWSGYPGGLFDVWGQGTLVTVSS
VL: B6 VL with N93S, S96T, V97G
notes: as for B3
B8: anti-KRas antibody 1A6 (antibody, human IgG1, V domains shown)
VH: B7 VH
VL: B6 VL with N93S, S96T, V97G, W98Y
notes: as for B3
B9: anti-KRas antibody 1F4 (antibody, human IgG1, V domains shown)
VH: EVQLVESGGGLVQPGGSLRLSCAASGFTFSSYSMNWVRQAPGKGLEWVSYISSSSSTIYYADSVKGRFTISRDNAKNSLYLQMNSLRAEDTAVYYCARSFGPYAFDVWGQGTLVTVSS
VL: not shown
B10: anti-KRas antibody 2C1 (antibody, V domains shown)
VH: EVQLVESGGGLVKPGGSLRLSCAASGFTFSSYSMNWVRQAPGKGLEWVSSISSSSSYIYYADSVKGRFTISRDNAKNSLYLQMNSLRAEDTAVYYCARAFYSYMDVWGQGTLVTVSS
VL: not shown
notes: as for B3

Assays:
[1] = molecular target: T1, KRas^WT-GDP (recombinant) (human, UniProt P01116-2 2-169, GDP bound); assay: SPR, IgG captured by anti-human IgG1 Fc, KRas in solution, 25 C, 1:1 Langmuir fit
Method: (§1) SPR experiments were carried out on the Mass-1 (Bruker) at 25° C. using HBS-P+(GE Healthcare) running buffer. 1 μg/mL of the anti-KRas antibodies were captured using an anti-HuIgG1 Fc capture kit (GE Healthcare). […] KRas^G12C-GDP was titrated using a dilution series from 5000-0 nM. KRas^G12C-GDP+ARS1620 was titrated using a dilution series from 1000-0 nM. KRas^G12C-GDP+ARS853 was titrated using a dilution series from 200-0 nM. KRasWT-GDP was titrated using a dilution series from 2000-0 nM. Sensorgrams were fit to a 1:1 Langmuir model to identify kinetic parameters.

[2] = molecular target: T1, KRas^WT-GDP (recombinant); assay: SPR, IgG captured, KRas as analyte
Method: as §1

[3] = molecular target: KRas^WT-GTP (recombinant) (human, UniProt P01116-2 2-169, GTP bound as printed in Table 1B); assay: SPR, KRas bound to GTP (Table 1B)

Row | Kd [1] | binding result [2] | Kd [3] | Binder
1 | 42 nM |  |  | B1
2 | 159 nM |  |  | B2
3 |  | no binding (tested: titrated 2000-0 nM) |  | B3
4 | 411 nM |  |  | B4
5 | 71 nM |  | 7 nM | B5
6 | 24 nM |  |  | B6
7 |  | no binding (tested: titrated 2000-0 nM) |  | B7
8 |  | no binding (tested: titrated 2000-0 nM) |  | B8
9 |  | no binding (tested: titrated 2000-0 nM) |  | B9
10 |  | no binding (tested: titrated 2000-0 nM) |  | B10
